One block for each substance: values may come before it. Non-standard residues stand in square brackets, D forms with d. No end group written: not given here.
Key:
API [1] = molecular target: T1, API (Homo sapiens, UniProt P01009); assay: Primary screening of 6-mer library for API-binding ligands; conditions: bead screening, immunodetection / radiolabel
T1 construct: from tissue; host or cells: human plasma (whole, fibrinogen-depleted or F1-Apo-depleted)
Description: Peptide libraries attached to Toyopearl-AF Amino 650M resin or Tentagel resin were evaluated with 14C-labeled fibrinogen and API. All steps were performed at room temperature. Specifically, 20 mg of Toyopearl resin beads or 40 mg of Tentagel resin beads were suspended in 20% methanol for a minimum of 2 hours in 15 ml conical polypropylene tubes (Corning). After rinsing with distilled water, the resin beads were equilibrated in 0.15 M NaCl, 0.020 M sodium citrate, pH 7.3. The resin beads were then blocked for 2 hours with 1% casein (Sigma) in 0.15M NaCl, 0.020M sodium citrate, pH 7.3. Following blocking, the resin beads were centrifuged and the supernatant removed. A solution containing 1 mM of C^14-labeled fibrinogen or 30 μM of C^14-labeled API was applied to the resin beads in the blocking solution in the presence of 0.1% Tween-20 (Sigma). The materials were incubated for 2 hours. The resin beads were washed with 0.15 M NaCl, 0.020 M sodium citrate, 0.05% Tween-20, pH 7.3, in a batch method (fibrinogen ligands) or in disposable BioRad 10 ml columns (API ligands) until radiation counts reached the background level of less than 40 DPM. The resin beads were divided into separate tubes to obtain approximately 5–10 mg of resin beads per sheet. This was accomplished by mixing each aliquot of resin beads with 20–22 ml of 1% low melting agarose solution (Sigma) at less than 40° C., and rapidly pouring the mixture onto GelBond® film sheets (BMA Cat. No. 53749, 16×18 cm; Cat. No. 53759, 12.5×24.5 cm). Spreading of the resin beads to the edge of the gel sheets was prevented by creating frames (about 23 cm×about 10 cm or about 15 cm×about 15 cm) with several layers of masking tape. About 20–22 ml of resin bead-agarose mixture was plated on each GelBond sheet. Special care was taken to spread the beads in an even monolayer to facilitate identification and isolation of individual “hot” beads. The agarose gel was then air-dried overnight and placed, bead side down, on X-ray film (Kodak Biomax MR). The agarose and autoradiography film were exposed for 4–14 days followed by a second exposure of 7 days in an about 20 cm×about 25 cm stainless steel cassette. Afterwards, the films were taped together and marked with several staple holes to ensure proper alignment of beads in agarose to film. After the films were developed, the positive beads that appeared on both films were identified under the microscope and picked by aligning the developed film(s) and agarose gel via the staple holes. Beads to be sequenced were carefully picked by cutting a square trench around the bead with a scalpel, and hydrating this area with distilled water. […]

albumin [2] = molecular target: T2, albumin (Homo sapiens, UniProt P02768); assay: Albumin in AKVSKG / D-WWLHIN evaluation (Example 7); type: binding; conditions: for binding of albumin in plasma: initial evaluation
T2 construct: from tissue; host or cells: human plasma (fibrinogen-depleted or F1-Apo-depleted)
Description: (§1) Conditions that prevented the binding of albumin from F1-Apo depleted plasma were identified. The capture of albumin by AKVSKG (SEQ ID NO: 45) and D-WWLHIN (SEQ ID NO: 33) can be prevented in the presence of 50 mM caproic acid or 1.0–2.2 M NaCl, respectively. An example for API purification with AKVSKG (SEQ ID NO: 45) is provided. F1-Apo-depleted plasma (10.7 ml) containing 50 mM caproic acid, was applied at 0.4 ml/min (LV=30 cm/h; RT=5.1) onto a 2.0 ml column (CF=0.785 cm^2) that had been equilibrated with 0.14 M NaCl, 0.020 M sodium citrate, pH 7.0 (EQ buffer). After the column was washed with 19 CVs of EQ buffer to baseline, API protein was eluted with 2.0 M NaCl, 0.020 M sodium citrate, pH 6.0. The column was regenerated with 2.0 M guanidine-HCl, 2% Sarkosyl and 2% acetic acid and stored in 20% methanol.

API [3] = molecular target: T1, API; assay: Purification of API from F1-Apo-depleted plasma on AKVSKG column (Example 7); type: binding
Description: as §1

API [4] = molecular target: T1, API; assay: Purification of API from F1-Apo-depleted plasma on HFVAPH column (Example 6); type: binding
Description: (§2) Fibrinogen and Apo-A1 lipoprotein-depleted plasma (prepared in Example 5) was loaded at a linear velocity of 30 cm/hour (0.4 ml/min; RT=5.1) onto 2.0 ml column (CF=0.785 cm^2) that had been equilibrated with 0.14 M NaCl, 0.020 M sodium citrate, pH 7.0 (EQ buffer). After the column was washed with EQ buffer and 2.0 M NaCl, 0.020 M sodium citrate, pH 6.0, to baseline, the API protein was eluted with 2.0 M NaCl, 1% Tween 20, 0.020 M sodium citrate, pH 6.0. The column was regenerated with 2.0 M guanidine-HCl, 2% Sarkosyl and 2% acetic acid and stored in 20% methanol. SDS-PAGE analysis of in-process samples (reduced and non-reduced samples) was performed using a Novex 8–16% gradient gel. Not all of the API was quantitatively eluted, but could be eluted using 2M guanidine. Purification of API protein to approximately 70% purity was accomplished with ligand HFVAPH (SEQ ID NO: 46) (isolated from an L-Library).

albumin [5] = molecular target: T2, albumin; assay: Albumin in HFVAPH column run (Example 6); type: binding
Description: as §2

Apo-A1 lipoprotein = molecular target: T3, Apo-A1 lipoprotein (Homo sapiens, UniProt P02647); assay: Apo-A1 lipoprotein purification from fibrinogen-depleted plasma on peptide resin column (Example 4); type: binding
T3 construct: from tissue; host or cells: human plasma (whole or fibrinogen-depleted)
T3 sequence (P02647 25-267 limits assumed): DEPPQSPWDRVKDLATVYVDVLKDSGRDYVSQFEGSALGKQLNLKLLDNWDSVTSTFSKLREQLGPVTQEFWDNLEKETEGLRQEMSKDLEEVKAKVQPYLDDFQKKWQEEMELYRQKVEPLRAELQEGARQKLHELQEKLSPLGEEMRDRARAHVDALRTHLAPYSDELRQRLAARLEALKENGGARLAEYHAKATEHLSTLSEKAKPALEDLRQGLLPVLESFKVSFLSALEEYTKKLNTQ
Description: Apo-A1 lipoprotein purification was accomplished with D-WWLHIN (SEQ ID NO: 33) peptides and several analogs. Indeed, about 100% Apo-A1 lipoprotein depletion from plasma was repeatedly obtained with D-WWLHAN (SEQ ID NO: 56) and D-WWLHIN (SEQ ID NO: […]). Fourteen milliliters of fibrinogen-depleted plasma was loaded onto a 2.3 ml column (CF=0.785 cm^2) at 0.4 ml/min. (LV=30 cm/H; RT=5.8) that had been equilibrated with 0.14 M NaCl, 0.020 M sodium citrate, pH 7.0 (EQ buffer). After the column was washed with EQ buffer to baseline, Apo-A1 lipoprotein was eluted with 2.0 M NaCl, 1% Tween-20, 0.020M sodium citrate, pH 7.0. The column was regenerated with 2.0 M guanidine-HCl, 2% Sarkosyl, and 2% acetic acid and stored in 20% methanol.

[6] = Elution Pool (without dialysis)

T1 sequence (P01009 25-418): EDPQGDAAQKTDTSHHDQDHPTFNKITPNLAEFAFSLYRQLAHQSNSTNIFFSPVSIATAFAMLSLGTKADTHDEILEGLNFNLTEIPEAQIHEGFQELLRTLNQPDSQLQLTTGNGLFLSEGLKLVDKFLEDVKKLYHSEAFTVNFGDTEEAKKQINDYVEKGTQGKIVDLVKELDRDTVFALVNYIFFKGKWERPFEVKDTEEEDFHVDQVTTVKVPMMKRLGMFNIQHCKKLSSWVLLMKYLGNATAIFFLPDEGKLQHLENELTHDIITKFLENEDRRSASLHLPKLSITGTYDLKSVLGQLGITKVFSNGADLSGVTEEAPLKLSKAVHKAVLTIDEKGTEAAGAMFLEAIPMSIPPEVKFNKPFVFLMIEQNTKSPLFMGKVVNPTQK

identified as API-binding peptide ligand from the 6-mer library (API [1]): API-binding
Albumin (albumin [2]; Elution (1% Tween)): <0.02 mg/mL
Albumin (albumin [2]; Flow through + Post Wash, nephelometric determination, load 20 mg/ml): 7.8 mg/mL
Albumin (albumin [2]; Wash (0.3 M NaCl)): 0.63 mg/mL
Albumin (albumin [2]; Wash, first 2.0 ml fraction): 0.14 mg/mL
Albumin (albumin [2]; Wash, second 2.0 ml fraction): 0.06 mg/mL
capture of albumin from F1-Apo depleted plasma (albumin [2]; in the presence of 50 mM caproic acid): prevented
binding of albumin in plasma (albumin [2]): binds albumin in addition to API protein
captured API protein recovered (API [3]; 2.0 M NaCl elution pool, nephelometric analysis): 71%
API (API [3]; Elution (1% Tween)): 0.05 mg/mL
Total API (API [3]; Elution (1% Tween)): 0.5 mg
API (API [3]; Elution (2 M NaCl)): 0.76 mg/mL
Total API (API [3]; Elution (2 M NaCl)): 7.6 mg
Total API (API [3]; Flow through + Post Wash, load 12.7 mg): 2.0 mg
API (API [3]; Flow through + Post Wash, plasma load 10.7 ml, 1.19 mg/ml, 50 mM caproic acid): 0.07 mg/mL
API (API [3]; Wash (0.3 M NaCl)): 0.11 mg/mL
Total API (API [3]; Wash (0.3 M NaCl)): 1.3 mg
API (API [3]; Wash, first 2.0 ml fraction): 0.06 mg/mL
Total API (API [3]; Wash, first 2.0 ml fraction): 0.1 mg
API (API [3]; Wash, second 2.0 ml fraction): <0.04 mg/mL
purity of the API eluate (API [3]; densitometric analysis): 85%
Substance: AKVSKG ([dA]KVSKG; not fully specified (residues 2, 3, 4, 5))

identified as API-binding peptide ligand from the 6-mer library (API [1]): API-binding
purity of purified API protein (API [4]): approximately 70%
API (API [4]; 2 M Guanidine #23): 0.1 mg/mL
Total API (API [4]; 2 M Guanidine #23): 0.4 mg
Total API (API [4]; Elution Pool (with dialysis)): 1.2 mg
API (API [4]; Elution Pool (with dialysis), 2.0 M NaCl, 1% Tween 20): 0.15 mg/mL
Total API (API [4]; [6]): 1.68 mg
API (API [4]; Elution Pool (without dialysis), 2.0 M NaCl, 1% Tween 20): 0.21 mg/mL
Total API (API [4]; Flow through, load 7.03 mg): 3.36 mg
API (API [4]; Flow through, load 9.5 ml, 0.74 mg/ml): 0.21 mg/mL
API (API [4]; Postwash): <0.04 mg/mL
Albumin (albumin [5]; 2 M Guanidine #23): <0.02 mg/mL
Albumin (albumin [5]; Elution Pool (with dialysis)): <0.02 mg/mL
Albumin (albumin [5]; [6]): <0.02 mg/mL
Albumin (albumin [5]; Flow through, load 22.6 mg/ml): 12.6 mg/mL
Albumin (albumin [5]; Postwash): 0.93 mg/mL
albumin binding from plasma (albumin [5]; in the presence of sodium citrate): does not bind albumin
Substance: HFVAPH

identified as API-binding peptide ligand from the 6-mer library (API [1]): API-binding
capture of albumin from F1-Apo depleted plasma (albumin [2]; in the presence of 1.0–2.2 M NaCl): prevented
binding of albumin in plasma (albumin [2]): binds albumin in addition to API protein
Apo-A1 lipoprotein depletion from plasma (Apo-A1 lipoprotein): about 100%
Substance: WWLHIN ([dW]WLHIN; not fully specified (residues 2, 3, 4, 5, 6)) [D-WWLHIN]
